Results taken from publication PMC7213743, “ArdC, a ssDNA-binding protein with a metalloprotease domain, overpasses the recipient hsdRMS restriction system broadening conjugation host range”.

Key:
ArdC [1] = biological target: T1, ArdC (Escherichia coli plasmid R388 …, UniProt Q6I6B2 22-318); assay: EMSA; 0-1 uM ArdC, 50 nM DNA; preferred over dsDNA; EMSA: 50 mM NaCl, 25 mM Tris-HCl pH 7.5, 0.5 mM EDTA, room temperature 30 min, 50 nM DNA; 10% native PAGE in cold 1x TBE; details: protein: recombinant; label: 6FAM (5'); single strand
T1 sequence: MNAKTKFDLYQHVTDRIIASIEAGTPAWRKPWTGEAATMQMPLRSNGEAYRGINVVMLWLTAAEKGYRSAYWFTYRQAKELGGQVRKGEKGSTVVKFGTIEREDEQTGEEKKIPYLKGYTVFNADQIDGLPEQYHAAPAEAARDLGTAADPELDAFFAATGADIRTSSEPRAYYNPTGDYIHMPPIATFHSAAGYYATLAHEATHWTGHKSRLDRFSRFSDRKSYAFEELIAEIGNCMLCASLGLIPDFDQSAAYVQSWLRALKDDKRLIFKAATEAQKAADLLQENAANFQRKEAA

ArdC [2] = biological target: T1, ArdC; assay: EMSA; 0-1 uM ArdC, 50 nM DNA; preferred over blunt duplex; EMSA: 50 mM NaCl, 25 mM Tris-HCl pH 7.5, 0.5 mM EDTA, room temperature 30 min, 50 nM DNA; 10% native PAGE in cold 1x TBE; details: protein: recombinant, label: 6FAM (5' of strand 1)

TACGCTCTTGGGCGCGCTGAATATGAGGTCAAGGCCGATGCGCTC (ssDNA) [Fluor-T87I2 (45 b ssDNA)]: binds (ArdC [1]).

B1: Fluor-T87I2 + Mid1 (partial duplex) (mixed)
DNA 1: TACGCTCTTGGGCGCGCTGAATATGAGGTCAAGGCCGATGCGCTC
DNA 2: GAGCGCATCGGCCTTGAC
B1: binds (ArdC [2]; 18 bp duplex, 5' overhang 27 nt (strand 1)).

B2: Fluor-T87I2 + Mid2 (partial duplex) (mixed)
DNA 1: B1 DNA 1
DNA 2: CTCATATTCAGCGCGCCCAAGAGCGTA
B2: binds (ArdC [2]; 27 bp duplex, 3' overhang 18 nt (strand 1)).
